Experiment [1] concerns the target T1, rat CRF receptor, type 1 (rat, UniProt P35353). The experiment in a line: SPA competition with 0.05 nM [125I-Tyr0]h/rCRF, HEK-293 membranes; 95% CI (0.06-0.51).
Experiment [2] has as its target T1, rat CRF receptor, type 1. As to the kind of experiment: SPA competition with 0.05 nM [125I-Tyr0]h/rCRF, HEK-293 membranes; 95% CI (0.15-0.49).

Ends that are not written are not given here.

For orientation: IC50 means the point on the concentration scale where inhibition reaches its midpoint. A low value points to inhibition by little substance.

In experiment [1], QGPPISIDLSLELLRKMIEIARAEKEKQQAANNRLLLDTI (ends and bridges not checked) [[Ala^21,23Arg^22]Svg] registered an IC50 of 290 pM.
QGPPISIDLSLELLRKMIEIAKQEKEKQQAANNRLLLDTI (ends and bridges not checked) [[Ala^21]Svg] had an IC50 in experiment [2] of 320 pM.

Source of the values: US20040049009A1, “Methods for improving the antagonistic/agonistic properties of peptidic antagonists/agonists of the corticotropin-releasing factor receptor (crfr)” (published 2004).
